# In a protein production outcome set (Wang et al. 2014):
# Assay: label from the status in PepcDB records
row,Sequence,protein production
1,MSLAILTTAYAKIIGLDFSYRKVSTLPIFTKKEDVILSSSHVQTIIYDPSFIADQNTFYLANPAVVIDYFPSKSHRSGIKFSLETFLAMYYKNIAADALADKDLNKSFLYANKAYQLDTDNIETINLLAVIHRRSGDLQTAEAIYKTGMDKGQTNIALLSNYIMLLKSQRRMDEVNTLQDKLNQLDDPDPYQWLGEAYTAKNVGNIKQAEIYFKKALSKAPYLNQAYMGLYKIYIKQNKLKKAQTMLVKALEWTYELDERKLYKYKLYNIEHNIAAIN,failed
2,MQKALFNLVLRGLEKQVPATGLGLFRLAFGLVAFQEICFLYYFRQLIFDPVPYLDIASPSVHLFLVLWAIAALCLALGLYTRLAAIANYLFWLVFTVFTPMWKDFDGGFDQLMLGSSLLLIFLPSERAWSLDRLRLAWRHSTVDRCYALPRTVPVLCYFLPLAVSLGFIYFDSVIHKLFAEFWRNGLGPWLPSSLPYYMSPLDMGWLLEIEPLQRAIGYTIIAFQFAFLFLLYFRRFRVPLMLVGLSLHAGIIVSLNIYPFGFGMLVHYFLMVPFRWWRTLGRTLRPAEPALQVFYDERCPLCLKTVLAIEHFDVFRAVEFRGLQTHAATAPALEDIPERDLLGDLYAVDREGRRYSGVATYARILVAMRYPALAGLAMRLPGLATIADRVYRRIADNRVRLGCDASCAPAPGRTEPDLAQRIGRWVGGSLQQRANRISRMLVVVLILQLNCTLHYAILYRLGVDTKANEAGQVLTMLSNALISASHTFLGITPHPLYLHDHFQGYEHILGIVHLDADGKERWLPFVDEEGRIVSPNWGRVHSMWANVAVTRHMDPRRLDKFVRKVTAFWGTRLGLDLNRTTFVLKLKTVKAPMDWEPGLRRYNLAQPWEDVGRAVWRDGEMRLELDRDLEALSAD,failed
3,MSLDRLAPAIFVFLWSTGWVTAKYAVYYTGPLTFLCLRYLLAGLLLWAICRFSGISWPKQRADVLRAILSGVFLHGIYLGMIWWAIGQGVPAAIGGIIAGLQPLMTAVAARFMIGERISPLQRAGLLLGFAGIAIAVLPKVMATGALGMSVPLYAVAVNVLGMVSVTYGTLYQKKYVHGGNIMAVATLQYVGALLVTVPFALLLEDGHVDWSLGLAATLGWSVGAISIGAVALLLYLIRRGQVSRAASLIYLVPPLAAVEAAVLFGETLTPAMIAGTVLAVTGVYLANRKPAASVAVR,failed
4,MAEEVRQELSALAAIFCGPNEWEMLSCSETDGAVFRIHTTAEGLVGEDVPLELAFHLPVGYPLCLPGISVTSEHLTRAQCVTAKEKLLGEARKLVSEPMVHELVLWIQQNLRLVLSQPETVSSHEKCTLPESATGDDGPWMTLLRLDHMRARTKYVKAVEKWASELRLTGRLMFMGKLILILLQGDRSNIKEYLILQKTSKVDVDSSGKKCKEKMISVLSETKVQTEHKRFLAFEVKEYSTLEELQKEFGAAGLGELFSECVLGLVK,failed
5,MSDGPLLNDVTRAFAEAHRNEDVRDLALKTKRTADLDLPAALDQIAGWQIARNKLPQWAACADIVYPAHISMEQCSSQFTAQYKAEIARRLLRSLPQSAGQTANDATMTDLTGGFGVDFSYLARGFGHATYVERQSHLCELAAHNMAALGLTQAQVVCGDGVEYLRAMEPAQLIYIDPARRDEHGARTYAIEDCTPDVLALRDLLLAKARYVMIKLSPMLDWRKAVDDFAGTVAEVHIVSTGNECKELLLVLDGKAAGATSDAAAADTRAPHVYCVNDDQRLDYDAAAYTRGLRIGDAPLPHELRYLYEPNASIMKAGCFDVVEARFGAVQIGPSSHLFVSDEPVDGFPGRGFAIETIGGMGKKELKRLLSGLDRANIAVRNFPLTAPQLRKKLKLADGGDAYLFGTTMQGGDHVLIRTAKISR,failed
6,MLDGQSCPLCPSRSSLPAGTSFHQSPMDIVTRTFEAPRTYRPSASVLGRAVRAWTNDRLRGEALYLVAMTGLTILLLMAHYLGWALLTSALAASQGWEPLFWQTQVGSVLVLAGLGLVGFRPAVRVTCRPDAVTLRQGDQTRTLSPPDIQDVRLISAQRYHRHYRRYAATQVFASAVSEQVLCVRTGDGPVIVALPGPEARAALLEHLEALTASASEAAARP,failed
7,MPTPGTGSVPELQLVPFQLGHFPILQRWFATEKELVQWAGPALRHPLSLEQMHEDLAESRRRPPLRLLWSACRDDQVIGHCQLLFDRRNGVVRLARIVLAPSARGQGLGLPMLEALLAEAFADADIERVELNVYDWNAAARHLYRRAGFREEGLRRSATRVGRERWNVVLMGLLRQEWAAGGAGND,not failed
8,MTIFVLSSLLAILLAVAIYNSEPSSYAHRSPTYGIGYVFVYIIAAFLFSFVIIYLGRKKKLRIFKVIYSIVVAYVIFYVFLILLSIFLYNVYAIFTVSIVVAIVFFYMILFRNEWYVTDLAGFFLSVGISSIWGITFGVWAAVAFLIAFEIYDYIAVYKTRHMISLARYAVDSDLPMLFVLPENSGFTMRGLSFDNRGDGNVLMIGFGDIALPSIMVVSSAIYGISHILFFTVLPLAGGLIGMAVLYFWNRDRPAPGLPYINTGTIAGFLIAFLAFRVF,failed
9,MAGQSDRKAALLDQVARVGKALANGRRLQILDLLAQGERAVEAIATATGMNLTTASANLQALKSGGLVEARREGTRQYYRIAGEDVARLFALVQVVADEHLADVAVAAADVLGSPEDAITRAELLRRREAGEVTLVDVRPHEEYQAGHIPGAINIPIAELADRLAELAGDRDIVAYCRGAYCVMAPDAVRIARDAGREVKRLDDGMLEWRLAGLPVDEGAPVGHGD,failed
10,MNYVVLGASAAGINAVKTLRELDKDSNIVVISKDENVYSRCMLHHVISEHRTLKQINFVDEDFMEQNNVKWIAGKTVKGIDINKKVVQTEDITVNYDKLLIATGASSAIPPIKNLRDGNFVYSVRNIDDIYKIKEKAQNSKNVVIIGAGLVGIDALVGLFKYEQLNISVAFMEKYILDRQLDEYTASVYENKFKEKGVKFYPSASIQEIVLDNSKNVTGVAFSNGEVLDADMVIVATGVKPNADFLDGTGIEYDRGIIIDDMCQTTQKDIYAAGDVVGKNAIWPLAVKQGIVAAYNMVGKDKKIEDEFAFKNSMNFMDIPTISIGMNTPVDDSYKVLTRHGINDYKKFVFKDNVIYGAVIQGDISYVGVLTYLIKNKVEIYDLENRIFDICYADFFNIKENGEFCYSV,failed
11,MSLEEELRRETLKWLERIEERVKEIEGDEGFMRNIEAYISDSRYFLEKGDLVRAFECVVWAWAWLEIGLEVGKLHETAEGHHHHHH,not failed
12,MHTPTAVLRPADFLAPIVAALISVLVNYGGTFVLVFQAAELAGLSAAQTTSWVWAVSIGVGVTGIALSWRYREPIITAWSTPGVAFLATVMPFTPYGEVIGAYLAAALGFVVLGLSGAFEKLVRMIPAGIAAGLLAGILLQFGINAFGGASADPLLVIALLVSYALLKRYTSRFAVVGILVIGLGLLAAQQRVDFAALHLSLAAPVFEMPRFSLHAMLGVALPLFVITLTGQYMPGMLVLRNDGFKTSANPILVATGLGSLVMAPFGAHTFNVAAITAAICTGRDAHEDPRKRYIAGLACGVFYILVGLFGVTLATLFMVLPKTFITTLAGLALLGTIGGSLASAMADARTRETALITFLATAANVTLLGVGGAFWGLVAGLAAHGLIHFRQPEPAAARPALLSPTSQDTR,failed
13,MKISLRLAVSSILGAIAYLGLAIWGMGGFSAFFGHPQLTLIAIATLLMVVAALYSEVNLSSGEQEDQGNRWVLPVFGVIGLLSGFVPAYSDRIDFCTFGGEGLRWLGALLFILGGGLRLWPVFILGRRFSGLVAIQPNHRLVVDGLYRHLRNPSYLGLLVNALGWALAFRSGLGLLLAALTLVPLIARIHAEEALLLKHFGKEYEAYCARSWRLLPGLY,failed
14,MFGEQLLKNPLIEFCDSVCRGCGQVMFQNNTVTGLLFFAGIFYNSTTLGVCAVLGTAASTLTAQLLGVDKPLVRAGLFGFNGTLAGIALPFFFNYEPAMLGYVALNGAFTTIIMASLLNFLGKWGVPALTAPFVLATWLLMFGVYKLSLFHPGALIAPALPSVAGLADMGTVTGRTFMEGLFKGVGEVMFQDNIVTGVIFVVAILVNSRISALFAVIGSLVGLCTALIMHSPETPVRLGLYGFNSVLCGIAMGGIFFYLNIRTFLYALGCMVLGAIATGAFSVLLSPIGMPALTWPFIVVTWLFLFAGSMFRNIAQVPTEKAGTPEDNLRSLAIGSR,not failed
15,MGEMENIIYSIYHPTILVGFAIGILSLLAIGFQKNDLHALILTDVVECAMLIIIAGVGTDLAEALILPGLVVSLAELLAVSEVLITRKYLKSKRPKPKSYKLFEEFKLPLYTGELKYDIHMEILKTSPKFLAIILIVYGAILSGFTGGAVIATGLLFYALSQRVIGVEISEELKTMWEGISGLSGIAWALWIFGFIGFFVFPDKWLLCLLMAGLGLVIKVGSKLGLIGYIGEVR,failed
16,MIKLKNDRLEVEIDNMGAQLTHVIGNESGYDYIWNGDAWKKHAPILFPAIGKSNNDEYVVDGKTYRMPQHGFARDFDWQKVNQAENRVMLELKSNAKTKEMFPFDFTLQVEYKLDQNQLLIGYRVINNDQRMMPYALGSHPAFNLPIDDDGVFEDYRLTFGPKQKQIKRLGVGPIPFRDGTEAPYPSIQASELALNHEMFDDGLIILNAKKLENVTLHSNQTAHEVKLNIKQFPYLTLWAMEHETQPFICIEPFAGLPDQASDQPTDWNNKKGNNLLEAGESHTFEYGIEFK,failed
17,MMRLLGILFILLSSSFNVYAQLPQVSAGSIERLTSFPSAFVPPRNIDIWLPAGYDKQQRYAVLYMHDGQMLFDATTSWNKQEWQIDEVASRLIKAGKTQPFIVVGIDNAGENRHSEYFPQQPFENLSQAQQTALYQLQRTKNQALFSQQVYSDRYLKFLVTELKPYIDSHYSVYTDAAHTFVMGSSMGGLISLYAISEYPHIFGGAACLSTHWPGTFEQQNNPIPPAFFNYMQQKLPDPSTHKLYFDHGTATLDAWYPQLQAKADKIIEAKGYTSQNWQSLIFEGAEHSEHAWAARLDIPLIFLLA,failed
18,MKRSIAPLLVCPACLPKERPLELTATAEADGDITAGHLSCKGCRRRFPIRDGIAVLLPDPDTGPSGGQWKYEEQGTLATYLWSHFADLAGDPEAGDAYASWASALAGNAETSLDAGCAVGRLTFELGQRSGLAVGFDLSLTFIRAARQLARERQIRFSLPREGNLRDEFRLTLPDCWRTDEVEFVVADALAIPFARETFDRTASLNLIDRVSYPLAHLYEMNRVARLSGASFLLSDPFSWSTANAPEEKWLGGTESGPYSGRGMDNVKAILGGKEAIIAPPWTVAREGSVWWKIRSHRNHFELIRSEFLVAERLEHHHHHH,failed
19,MDHVQISVQKLDEILKLNGSALLNRVTLDIHQQLKSHCTCVVEVAHLQHAAHTISFASGGEISDNLSYHLSGTPCEKVAKDIGEHIFYQDQVYKRFPEDQMFQDDGVQAYLGLPLKTQSGEVLGILLSTFTRSIHAKEAQDVLELHRFYANVIIHSLREKWVSERSDKLLNQLSYEVSHDNLTGLLNRSCLADTLETLTQQATRPFNLAYLDIDNFKSINDINGNYIGDQIIKFTANAIQQSLSSPNNAFRVAGDEFAFITYDEDPVAVCQEVLDKIEAGYSDKSNRISFTVSIGIARAPVHMLNSDELILNASLALKDCKKHRDTRIQHYDTHLSALYHRQTQLIEAMRIQLSTSITESHELYVVLQPIVDVNNDRWDYFEILARWNSSVYGNISPAEFIEAAEQSGLIIELGERIIELACIAKQELEAHLGYTVKLSINCSAHELVDSNRYINHLTTLLERYGHDASDFVIELTETVLLSQSGREQMVLNSLRYLGFKVALDDFGTGYSSLNYIHNYPIDSIKIDATFVRNMLSNKTSEQVVYLIAQLAQLLDVDLIAEGVEDDRALNKLIDMGCHYIQGYFYSRPHNVDELVHMINDRQVKRA,failed
20,MATPAYMSITGTKQGLITAGAFTADSVGNTYQEGHEDQVMVQGFSHELIIPRDPQSGQPTGQRVHKPVKITKVFDKSSPLLLAALTSGERLTEITIQWYRTSAAGTQEHYYTTKLEDAIIVDIKDYMHNCQDPANAHFTHLEDVEFTYRKITWTHEVSGTSGSDDWRSPVAG,not failed
